Holding throughout (assay): two-hybrid library CCmax;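 note: natural log of median RNA to DNA barcode read ratio; higher means stronger binding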
In experiment [1] the target is T1, 4H3493-AA.
T1 chain: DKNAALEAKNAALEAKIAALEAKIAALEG

Experiment [2] has as its target T2, 4H3340-AA.
T2 chain: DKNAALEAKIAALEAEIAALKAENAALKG
To be noted: mean of both orientations.

Experiment [3] deals with T3, 4H376-AA.
T3 chain: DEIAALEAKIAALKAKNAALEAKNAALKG
To be noted: mean of both orientations.

For experiment [4], the target named is T4, 4H963-AA.
T4 chain: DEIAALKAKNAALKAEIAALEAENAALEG
Conditions: mean of both orientations.

Experiment [5] has as its target T5, 4H2504-AA.
T5 chain: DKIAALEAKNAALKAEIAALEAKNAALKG
Conditions: mean of both orientations.

Experiment [6] concerns the target T6, 4H335-AA.
T6 chain: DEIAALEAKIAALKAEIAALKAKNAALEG
To be noted: mean of both orientations.

For experiment [7], the target named is T7, 4H2343-AA.
T7 chain: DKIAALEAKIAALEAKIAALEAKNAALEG
Conditions: mean of both orientations.

Experiment [8] deals with T8, 4H2575-AA.
T8 chain: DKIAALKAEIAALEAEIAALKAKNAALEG

The target of experiment [9] is T9, 4H3921-AA.
T9 chain: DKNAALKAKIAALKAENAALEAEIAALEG
Conditions: mean of both orientations.

For experiment [10], the target named is T10, 4H918-AA.
T10 chain: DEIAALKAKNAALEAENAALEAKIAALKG
Conditions: mean of both orientations.

Experiment [11] has as its target T11, 4H568-AA.
T11 chain: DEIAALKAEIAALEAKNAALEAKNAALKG
To be noted: mean of both orientations.

For experiment [12], the target named is T12, 4H3855-AA.
T12 chain: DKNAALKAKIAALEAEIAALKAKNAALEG
To be noted: mean of both orientations.

For experiment [13], the target named is T13, 4H2442-AA.
T13 chain: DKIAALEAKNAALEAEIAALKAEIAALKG
Conditions: mean of both orientations.

Experiment [14] concerns the target T14, 4H687-AA.
T14 chain: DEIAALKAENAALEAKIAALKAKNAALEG
Conditions: mean of both orientations.

Experiment [15] deals with T15, 4H130-AA.
T15 chain: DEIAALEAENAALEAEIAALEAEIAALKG
To be noted: mean of both orientations.

For experiment [16], the target named is T16, 4H1360-AA.
T16 chain: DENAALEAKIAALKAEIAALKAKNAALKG
Conditions: mean of both orientations.

Experiment [17] addresses T17, 4H1913-AA.
T17 chain: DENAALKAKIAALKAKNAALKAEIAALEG
To be noted: mean of both orientations.

In experiment [18] the target is T18, 4H1257-AA.
T18 chain: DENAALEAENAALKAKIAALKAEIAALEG

The target in experiment [19] is T19, 4H1558-AA.
T19 chain: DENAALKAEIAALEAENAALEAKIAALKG
To be noted: mean of both orientations.

For experiment [20], the target named is T20, zCON9_D.
T20 chain: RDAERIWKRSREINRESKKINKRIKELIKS
Conditions: mean of both orientations.

Experiment [21] concerns the target T21, 4H1552-AA.
T21 chain: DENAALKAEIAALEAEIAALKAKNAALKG
Conditions: mean of both orientations.

For experiment [22], the target named is T22, P8-AA.
T22 chain: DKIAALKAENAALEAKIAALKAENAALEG
Conditions: mean of both orientations.

Experiment [23] deals with T23, O6-AA.
T23 chain: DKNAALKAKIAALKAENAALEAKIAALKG
Conditions: mean of both orientations.

The target of experiment [24] is T24, P7-AA.
T24 chain: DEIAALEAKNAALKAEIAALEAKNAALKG
Conditions: mean of both orientations.

In experiment [25] the target is T25, 4H_APH4.
T25 chain: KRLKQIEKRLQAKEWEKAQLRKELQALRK

Experiment [26] addresses T26, AP7-AA.
T26 chain: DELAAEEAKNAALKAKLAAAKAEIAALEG
Conditions: mean of both orientations.

Experiment [27] concerns the target T27, P4-AA.
T27 chain: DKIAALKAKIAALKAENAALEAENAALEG
Conditions: mean of both orientations.

The target in experiment [28] is T28, 4H_APH2.
T28 chain: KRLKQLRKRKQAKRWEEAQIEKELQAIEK

The target of experiment [29] is T29, 4H_APH3.
T29 chain: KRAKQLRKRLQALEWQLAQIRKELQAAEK

The target in experiment [30] is T30, zCON9_B.
T30 chain: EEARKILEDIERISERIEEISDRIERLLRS
To be noted: mean of both orientations.

Experiment [31] deals with T31, P11-AA.
T31 chain: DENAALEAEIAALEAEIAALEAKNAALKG
Conditions: mean of both orientations.

The target of experiment [32] is T32, AP4-AA.
T32 chain: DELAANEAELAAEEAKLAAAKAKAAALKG
To be noted: mean of both orientations.

In experiment [33] the target is T33, AP2-AA.
T33 chain: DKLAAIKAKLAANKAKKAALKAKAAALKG
To be noted: mean of both orientations.

Experiment [34] concerns the target T34, P6-AA-1HAA-N.
T34 chain: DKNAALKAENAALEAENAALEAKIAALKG
To be noted: mean of both orientations.

Experiment [35] has as its target T35, 4H451-AA.
T35 chain: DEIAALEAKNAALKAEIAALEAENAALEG

Experiment [36] addresses T36, 4H3625-AA.
T36 chain: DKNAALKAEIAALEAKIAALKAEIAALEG
Conditions: mean of both orientations.

In experiment [37] the target is T37, 4H2736-AA.
T37 chain: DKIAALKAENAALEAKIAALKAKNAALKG
To be noted: mean of both orientations.

Experiment [38] deals with T38, 4H43-AA.
T38 chain: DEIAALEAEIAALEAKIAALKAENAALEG
Conditions: mean of both orientations.

The target in experiment [39] is T39, 4H337-AA.
T39 chain: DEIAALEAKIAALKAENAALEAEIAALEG
Conditions: mean of both orientations.

For experiment [40], the target named is T40, 4H1392-AA.
T40 chain: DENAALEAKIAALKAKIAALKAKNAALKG
To be noted: mean of both orientations.

Experiment [41] deals with T41, 4H510-AA.
T41 chain: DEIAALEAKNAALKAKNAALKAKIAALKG
Conditions: mean of both orientations.

Experiment [42] addresses T42, 4H1153-AA.
T42 chain: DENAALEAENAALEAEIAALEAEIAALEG

Experiment [43] addresses T43, O5-AA.
T43 chain: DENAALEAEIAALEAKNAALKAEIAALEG
To be noted: mean of both orientations.

Where two headings read alike, the source gives them in different places.

B1: 4H249-AA (peptide)
chain: DEIAALEAENAALKAKNAALKAEIAALEG
Turning to B1, the interaction score was -1.67 in experiment [1]; -1.45 in experiment [2]; -1.45 in experiment [3]; -1.65 in [4]; -1.35 in experiment [5].

B2: 4H1626-AA (peptide)
chain: DENAALKAEIAALKAENAALKAEIAALKG
B2: the interaction score in experiment [1] (mean of both orientations) is -1.45; in experiment [2] it was -1.43; in experiment [3], -1.87; in [4], -1.46; in experiment [5] it was -1.49.

B3: 4H2165-AA (peptide)
chain: DKIAALEAEIAALKAKNAALEAKIAALEG
On to B3, for which the interaction score in experiment [6] is -1.5; in experiment [7], -1.25; in experiment [8] (mean of both orientations), -1.19; in [9] it was -1.58.

B4: 4H1845-AA (peptide)
chain: DENAALKAKIAALEAKNAALEAKIAALEG
Regarding B4, the interaction score in experiment [10] is -1; in experiment [11] it was -1.18; in experiment [12], -1.94; in experiment [13], -1.87; in [14] it was -1.51.

B5: 4H1064-AA (peptide)
chain: DENAALEAEIAALEAKIAALEAKNAALKG
As for B5, the interaction score in [15] is -0.874; in experiment [16], 0.702; in [17], -0.972; in [18] (mean of both orientations), 0.616; in [19] it was -1.61.

B6: 4H1401-AA (peptide)
chain: DENAALEAKIAALKAKNAALKAEIAALEG
As for B6, the interaction score in [20] is -1.37; in experiment [21], -0.741; in [22], 0.854; in experiment [23], 1.98; in experiment [24], -1.39; in experiment [25], -1.85. The interaction score in experiment [26] was -1.37; in experiment [27], -1.93; in experiment [28] it was -2.35; in [29], -1.06; in experiment [30], -0.316; in experiment [31], 0.388. The interaction score in [32] is -1.22; in experiment [33] it was -1.98; in experiment [34] it was 1.57.

B7: 4H1385-AA (peptide)
chain: DENAALEAKIAALKAKIAALKAEIAALEG
For B7, the interaction score was -1.11 in [35]; 1.76 in experiment [36]; -0.116 in experiment [37]; 1.97 in [38]; 0.173 in experiment [39]; -0.355 in experiment [40]. Moreover, the figures for the interaction score in experiment [41] and in experiment [34] were -1.54 and -0.2, respectively.

B8: 4H1257-AA (peptide)
chain: DENAALEAENAALKAKIAALKAEIAALEG
Consider B8, for which the interaction score in experiment [15] was 1.9; in experiment [10], -1.05; in experiment [16], -0.666; in experiment [17] it was -0.977; in experiment [11] it was -0.953; in [12], -0.401. In addition, the interaction score was 0.41 in [18], -0.232 in experiment [19], -1.57 in experiment [13] and -1.24 in experiment [14].

B9: 4H1153-AA (peptide)
chain: DENAALEAENAALEAEIAALEAEIAALEG
On to B9, for which the interaction score is -0.418 in [6]; -0.818 in experiment [21]; -0.264 in experiment [8]; -1.43 in experiment [42]; -1.87 in [9].

B10: 4H171-AA (peptide)
chain: DEIAALEAENAALEAKIAALKAENAALEG
As for B10, the interaction score is -0.729 in [23] and -0.0194 in experiment [43].

B11: 4H3606-AA (peptide)
chain: DKNAALKAEIAALEAENAALEAKIAALKG
Consider B11, for which the interaction score in experiment [20] is -1.76; in experiment [22], -0.645; in experiment [24] it was 1.24; in experiment [25], -1.64; in experiment [26] it was -1.35; in experiment [43], 2.23. Further, the interaction score was -0.573 in experiment [27]; -2.3 in experiment [28]; -1.55 in experiment [29]; -0.854 in experiment [30]; -1.15 in experiment [31]; -1.63 in [32]. In addition, in [33], the interaction score is -1.36.

B12: 4H1142-AA (peptide)
chain: DENAALEAEIAALKAKNAALEAKIAALKG
Turning to B12, the interaction score in experiment [42] (mean of both orientations) was -1.39.

B13: 4H1350-AA (peptide)
chain: DENAALEAKIAALKAEIAALEAKIAALKG
In the case of B13, the interaction score is 0.115 in [35] (mean of both orientations); 1.97 in [36]; -1.22 in [37]; 2.09 in [38]; 1.52 in experiment [39]; -0.186 in [40]. Moreover, the interaction score in experiment [41] was -1.17.

B14: 4H2253-AA (peptide)
chain: DKIAALEAENAALKAEIAALKAKIAALEG
In the case of B14, the interaction score in [7] was -2.02.

The values are drawn from paper PMC10397247.
